Laboratory results taken from the DeepSol protein solubility set.

Experiment: soluble on expression in E. coli; label from the status in PepcDB or PDB records

Row | Sequence | soluble on expression in E. coli
1 | AHHHHHHGSENPYEIVGVVAREILDSRGNPTVEVDVYTHVGMGRAAVPSGASTGTHEALELRDGGKRYHGKGVRRAVENVNKIIAPELIGMDVRWQREIDALLLELDGTENKSNVGANAILAVSLAVAKAAANSLELPLYQYLGGVNAYVLPVPLSNVINGGVHAGNDLDFQEFMIMPIGADSFREAIRWVSETYHVLKKVIMEKYGKNAVNVGDEGGFAPPMKEVTEPLDVLIKAIEEAGYKPGDEIALALDVASSELFNEETGKYVVGGKEYDRGELLELYKDLTSTYPIVSIEDPFHEEDWEGFVMITKELGHKVQIVGDDLFVTNPKRLRKGIELGAANALLLKVNQIGTLSEAMDAAFTAFRAGYGVIVSHRSGETEDATIADLAVALNAGQIKTGAPARSDRNAKYNQLIRIEEELEGVAVYAGKRFRKVFF | soluble
2 | AHHHHHHGSERAFIEWYPRGYGVAFKIKKKIYEKLSKYQKIEVYETEGFGRLLALDGTVQLVTLGERSYHEPLVHPAMLAHPKPKRVLVIGGGDGGTVREVLQHDVDEVIMVEIDEDVIMVSKDLIKIDNGLLEAMLNGKHEKAKLTIGDGFEFIKNNRGFDVIIADSTDPVGPAKVLFSEEFYRYVYDALNNPGIYVTQAGSVYLFTDELISAYKEMKKVFDRVYYYSFPVIGYASPWAFLVGVKGDIDFTKIDRERAKKLQLEYYDPLMHETLFQMPKYIRETLQRL | soluble
3 | AHHHHHHGSIDPRELAISAKLEGVKRIIPVVSGKGGVGKSLISTTLALVLSEQKYKVGLLDLDFHGASDHVILGFEPKELPEEDKGVIPPTVHGIKFMTIAYYTEDRPTPLRGKEISDALIELLTITRWDELDFLVVDMPPGMGDQFLDVLKYFKRGEFLIVATPSKLSLNVVRKLIELLKEEKHQILGIVENMKLDEEEDVMRIAQEYGIRYLGGIPLYRDLESKVGNVNELLATEFAEKIRGIAKKI | soluble
4 | AHHHHHHGSKKKYKKVVVGGTFDRLHLGHKALLRKAFEVGEIVYIGLTSDEMIKEKQYSERILPYEKRLLDLIKFLEVNKYRNYRIMKIHNAIGFTTKIKSLEAIVVSEETYKGAVLVNKAREELGLRPLDIVVIPIIRSRLGCKISSSLIRAGLIDPFGNPIRREEK | not soluble
5 | AHHHHHHGSKVLVTGFEPFGGEKINPTERIAKDLDGIKIGDAQVFGRVLPVVFGKAKEVLEKTLEEIKPDIAIHVGLAPGRSAISIERIAVNAIDARIPDNEGKKIEDEPIVPGAPTAYFSTLPIKKIMKKLHERGIPAYISNSAGLYLCNYVMYLSLHHSATKGYPKMSGFIHVPYIPEQIIDKIGKGQVPPSMCYEMELEAVKVAIEVALEELL | soluble
6 | AHHHHHHGSVKVTFLGHAAFYIEGSKKILIDPFLSGNPVASAKPDDFKSVDLILVTHAHGDHLGDVGTIAKRTGAKVVAMYDLANYIAEKYKGVETIGMNYGPTKVDEVEIVQVPAWHSSSDGKYSIGNACGYIVKLDGVTIYHAGDTYVFKDMELFAELYGPIDVALLPIGGHFTMGVREAAKAVELLKPRHVIPMHYNTWPPIAADPEEFKKLVGEKAKVVILKPGESLEL | not soluble
7 | AHHHHHHSSGLEVLFQGPNELNYGQLSISPIFQGGSYQLNNKSIDISSLLLDKLSGESQTVVMKFKADKPNSLQALFGLSNSKAGFKNNYFSIFMRDSGEIGVEIRDAQKGINYLFSRPASLWGKHKGQAVENTLVFVSDSKDKTYTMYVNGIEVFSETVDTFLPISNINGIDKATLGAVNREGKEHYLAKGSIDEISLFNKAISDQEVSTIPLSNPFQLIFQSGDSTQANYFRIPTLYTLSSGRVLSSIDARYGGTHDSKSKINIATSYSDDNGKTWSEPIFAMKFNDYEEQLVYWPRDNKLKNSQISGSASFIDSSIVEDKKSGKTILLADVMPAGIGNNNANKADSGFKEINGHYYLKLKKNGDNDFRYTVRENGVVYNETTNKPTNYTINDKYEVLEGGKSLTVEQYSVDFDSGSLRERHNGKQVPMNVFYKDSLFKVTPTNYIAMTTSQNRGESWEQFKLLPPFLGEKHNGTYLCPGQGLALKSSNRLIFATYTSGELTYLISDDSGQTWKKSSASIPFKNATAEAQMVELRDGVIRTFFRTTTGKIAYMTSRDSGETWSKVSYIDGIQQTSYGTQVSAIKYSQLIDGKEAVILSTPNSRSGRKGGQLVVGLVNKEDDSIDWKYHYDIDLPSYGYAYSAITELPNHHIGVLFEKYDSWSRNELHLSNVVQYIDLEINDLTK | soluble
8 | AIAADRTVPHAYPMSMDYEMCTPPRIYDQNFAEALSPKELLAPVLYHGYYIRPRINKQLERGFSQVESEDDWYRVLLDVCQFTPDEISVRTVDNLLEVSARHAQRMDQHGFVSREFTRTYILPMGVDPLLVQVSLSHDGILCIQAPRKTEDLEPQINQLKIKVEKKESTSK | soluble
9 | AIAAEMKTYSHRTMPSACTLVMCSSVESGLPGRDGRDGREGPRGEKGDPGLPGAAGQAGMPGQAGPVGPKGDNGSVGEPGPKGDTGPS | soluble
10 | AIAARPPPDPLYILRGSGASVNALHFCCDGDGPPLLYSGSGKGAVHVWNLSTRRAERVLESHAGNSVIWLNTFNNSRSCLISQGRDMRVCVWDLSEGRSAVTDSLHTGSVGFCQCSLLGSRLGSTLLAHPTQHMEEVSVVEMSSWTQVCSLKPDSNLGMLMSMKMWQADSGPVLCAGYEDGSVVLWDVSHRRPFSLLKVHPEPVMSLDVDVCRQKGISGSSENILQSWRLDNQQSLQMHDSIQMTNPGVSQLRIRADGKILASAGWDNNIRVFGWKKLKPLAVLQHHTDMVNSVAFSDHQDPTQRLLAAGSKDQRISVWSIYSES | soluble
11 | AIAEEWDVPQMKKEVESLKYQLAFQREMASKTIPELLKWIEDGIPKDPFLNPDLMKNNPWVEKGKCTIL | soluble
12 | AIAGCASAKHVSTVQNEDDAQNGKNYQNGDAFCDEYRIKPVEEVKYMKNGEEEEQKILSKNQENLVSCLEEKSATHTARSKSNTEAAGAGHPYRINIHISESQQEFFRMLDEKIEKGRDYCSEEEDIT | soluble
13 | AIAPTATYAALIHADLDVLWGLLLDKLQSDEQFMPGLERAEIVPLSVAEDPTGVARFRQQHDRRLYFSDGRLVEERVTIDEERKNILLELRNDARYTGYVSTVLLPCPFPEATSGAHVLVRTMDWRAKRSLTDDEIEEGELLATKIRESTLRLKHEVESLRWSLDDSKDPDDE | soluble
14 | AIARGPEPGPQPTMEGDVLDTLEALGYKGPLLEEQALTKAAEGGLSSPEFSELCIWLGSQIKSLCNLEESITSAGRDDLESFQLEISGFLKEMACPYSVLISGDIKDRLKKKEDCLKLLLFLSTELQASQILQNKKHKNSQLDKNSEVYQEVQAMFDTLGIPKSTTSDIPHMLNQVESKVKDILSKVQKNHVGKPLLKMDLNSEQAEQLERINDALSCEYECRRRMLMKRLDVTVQSFGWSDRAKVKTDDIARIYQPKRYALSPKTTITMAHLLAAREDLSKIIRTSSGTSREKTACAINKVGVSFSTVENELMISYLMFLQILVYFSFMSW | soluble
15 | AIASARVRSRSRGRGDGQEAPDVVAFVAPGESQQEEPPTDNQDIEPGQEREGTPPIEERKVEGDCQEMDLEKTRSERGDGSDVKEKTPPNPKHAKTKEAGDGQP | soluble
16 | AIELVPEHQTVPVSIGVPATLRCSMKGEAIGNYYINWYRKTQGNTMTFIYREKDIYGPGFKDNFQGDIDIAKNLAVLKILAPSERDEGSYYCACDTLGMGGEYTDKLIFGKGTRVTVEPRSQPHTKPSVFVMKNGTNVACLVKEFYPKDIRINLVSSKKITEFDPAIVISPSGKYNAVKLGKYEDSNSVTCSVQHDNKTVHSTDFEVKTDSTDHVKPKETENTKQPSKS | soluble
17 | AKQQKHFVLVHGGCLGAWIWYKLKPLLESAGHKVTAVDLSAAGINPRRLDEIHTFRDYSEPLMEVMASIPPDEKVVLLGHSFGGMSLGLAMETYPEKISVAVFMSAMMPDPNHSLTYPFEKYNEKCPADMMLDSQFSTYGNPENPGMSMILGPQFMALKMFQNCSVEDLELAKMLTRPGSLFFQDLAKAKKFSTERYGSVKRAYIFCNEDKSFPVEFQKWFVESVGADKVKEIKEADAMGMLSQPREVCKCLLDISDS | soluble
18 | AKSVVSHSLTTLGVEVSKPPPQHDKIEASEPSFPLHESILKVVEEEWQQIDRQLPSVACRYPVSSIEAARILSVPKVDDEILGFISEATPAAATQASSTESCDKHLDLALCRSYEAAASALQIAAHTAFVAKSLQADISQAAQIINSDPSDAQQALRILNRTYDAASYLCDAAFDEVRMSACAMGSSTMGRRYLWLKDCKISPASKNKLTVAPFKGGTLFGGEVHKVIKKRGNKQ | soluble
19 | AKVATGTDILSAASNVSLQKARTWDEGVESKFSTTPVNDIFKDKKVVIFGLPGAYTGVCSSKHVPPYKHNIDKFKAKGVDSVICVAINDPYTVNAWAEKIQAKDAIEFYGDFDGSFHKSLELTTDLSAGLLGIRSERWSAYVVDGKVKALNVEESPSDVKVSGAETILGQI | soluble
20 | ALGVPFFSCQRGYKGVWRGDGIMQTTCPCGAQITGHVKNGSMRIVGPRTCSNTWHGTFPINAYTTGPCTPSPAPNYSRALWRVAAEEYVEVTRVGDFHYVTGMTTDNVKCPCQVPAPEFFTEVDGVRLHRYAPACKPLLREEVTFLVGLNQYLVGSQLPCEPEPDVAVLTSMDDDDK | soluble
21 | ALMGGIVDVEGAQNSAEVEELARFAVDEHNKKENALLQFSRLVKAKQQVVSGIMHHLTVEVIEGGKKKVYEAKVWVQAWLNSKKLHEFSPI | soluble
22 | ANQLRELKQTHTYTVFGYTDGGFAVISADDLAPELLGVSESNFVETDNPSFKWWLKAIDEVITNAVKSNKPLNVIKPDPSKYAAEVSTLLTTTWGQQMPYNKLLPKTKKGRLITGAVATATAQVLNYFKYPVRGIGSHTVHYPANDPSGVAISADFGNTTYDWANMKDNYSGNYTEAEANAVATLMLHCGVASEMQYGGPNEGSGAYMTDCAAGLRTYFGFTDAEYITRANYTDEQWMDIVFSELTKGHPLIYGGVSPGSMGQDAGHAFVIDGYNKAGLVSVNWGWNGDVDGYYKIDLLNPGNMYSFTAEQDMVRGVYGKP | soluble
23 | ANQQTSGKVLYEGKEFDYVFSIDVNEGGPSYKLPYNTSDDPWLTAYNFLQKNDLNPMFLDQVAKFIIDNTKGQMLGLGNP | soluble
24 | APKASLRLGFSEYSRISNLIVLHLRKVEEEEDESALKRSELVNWYLKEIESEIDSEEELINKKRIIEKVIHRLTHYDHVLIELTQAGLKGSTEGSESYEEDPYLVVNPNYLLED | soluble
25 | APSCPAGSLCTYSGTGLSGARTVIPASDMEKAGTDGVKLPASARSFANGTHFTLRYGPARKVTCVRFPCYQYATVGKVAPGAQLRSLPSPGATVTVGQDLGD | soluble
26 | APVISQISKDVVASVGDSVEFNCTVEEVGQLSVSWAKRPSESDTNSVVLSMRNILSLPDQRYNVTVTEGPKTGSAIYTFRIQNIEVSDMGPYECQVLVSATEKVTKKLSLQIKTPPVIAENTPKSTLVTEGQNLELTCHANGFPKPTISWAREHNAVMPAGGHLLAEPTLRIRSVHRMDRGGYYCIAQNGEGQPDKRLIRVEVEFRPQIAVQRPKIAQMVSHSAELECSVQGYPAPTVVWHKNGVPLQSSRHHEVANTASSSGTTTSVLRIDSVGEEDFGDYYCNATNKLGHADARLHLFQTVIPVPSLS | soluble
27 | AQELYKNENAPVHERVMDLISRLTVEEKISLLRATSPGIPRLGIDKYYHGNEALHGVVRPGRFTVFPQAIGLAATWNPELQKRVATVISDEARARWNELDQGREQKEQFSDVLTFWSPTVNMARDPRWGRTPETYGEDPFLSGIMGTAFVNGLQGDDPHYLKIVSTPKHFAANNEEHNRFVCNPQISEKQLREYYFPAFEMCVKEGKAASIMSAYNALNDVPCTLNPWLLQKVLRQDWGFQGYVVSDCGGPALLVNAHKYVKTKEAAATLSIKAGLDLECGDDVYDGPLLNAYKQYMVSDADIDSAAYHVLTARMKLGLFDS | not soluble
